# According to the Human Domainome abundance scans (Beltran et al. 2025):
# ± gives the uncertainty stated by the source.
# B1: Pituitary-specific positive transcription factor 1, residues 130 to 198; numbered along this chain, P28069 (parent)
# chain: RELEKFANEFKVRRIKLGYTQTNVGEALAAVHGSEFSQTTICRFENLQLSFKNACKLKAILSKWLEEAE
# Variants of: B1
# Test: abundance fitness (aPCA) (normalised: wild type 0, dead -1); higher = more abundant; growth selection in yeast, the domain comes from the species named
# Conditions: Homo sapiens
row,Variant,abundance fitness
1,E69Q,-0.635 ± 0.22
2,T40G,-0.528 ± 0.1
3,R1D,-0.187 ± 0.099
4,K5L,-0.227 ± 0.039
5,S37D,0.199 ± 0.059
6,N53K,0.21 ± 0.077
7,L3W,-0.715 ± 0.16
8,R13F,-0.872 ± 0.4
9,E66G,-0.373 ± 0.07
10,S34V,-0.084 ± 0.13
11,E26C,-0.476 ± 0.21
12,I41D,-0.758 ± 0.37
13,L3E,-0.725 ± 0.29
14,A7H,-0.973 ± 0.34
15,A68L,-0.778 ± 0.17
16,R14H,-0.253 ± 0.22
17,I15A,-0.173 ± 0.085
18,Q48V,-0.574 ± 0.081
19,V24G,-0.753 ± 0.18
20,F44M,-0.89 ± 0.34
21,K5Y,-0.236 ± 0.096
22,K16M,-0.365 ± 0.13
23,V12Y,-0.295 ± 0.16
24,A29C,-0.361 ± 0.086

row,Variant,abundance fitness
1,F36W,-0.229 ± 0.082
2,F51W,-0.042 ± 0.16
3,F44I,-0.861 ± 0.18
4,G25T,-0.325 ± 0.12
5,L17S,-0.738 ± 0.091
6,S50H,-0.168 ± 0.14
7,L47A,-0.204 ± 0.082
8,K5F,-0.46 ± 0.14
9,K58A,-0.473 ± 0.07
10,E4L,-0.579 ± 0.11
11,S34E,0.019 ± 0.055
12,T20W,-1.12 ± 0.25
13,N8V,-0.224 ± 0.12
14,Q21K,-0.702 ± 0.11
15,E26Q,-0.527 ± 0.36
16,A54S,0.06 ± 0.13
17,A30H,-0.357 ± 0.08
18,A59W,-0.61 ± 0.1
19,A68H,-0.271 ± 0.1
20,K63L,-0.3 ± 0.06
21,Y19K,-0.674 ± 0.21
22,L65N,-0.955 ± 0.21
23,C42A,0.21 ± 0.074
24,C42P,-0.761 ± 0.092

row,Variant,abundance fitness
1,W64N,-0.475 ± 0.28
2,N8S,0.034 ± 0.059
3,G25F,-0.285 ± 0.18
4,L47M,0.263 ± 0.082
5,G25K,-0.797 ± 0.22
6,A29P,-0.89 ± 0.24
7,A59C,-0.084 ± 0.056
8,R13D,-0.803 ± 0.36
9,K56R,0.005 ± 0.038
10,I60K,-0.262 ± 0.1
11,K58Q,-0.019 ± 0.088
12,K11I,-0.458 ± 0.15
13,A27N,-0.74 ± 0.41
14,E45M,-0.893 ± 0.31
15,E35P,-0.381 ± 0.17
16,E35V,-0.306 ± 0.055
17,L65P,-0.752 ± 0.2
18,L47I,-0.866 ± 0.34
19,L28C,-0.889 ± 0.23
20,F44L,-0.76 ± 0.077
21,A29Y,-0.609 ± 0.2
22,K16V,-0.812 ± 0.18
23,L3I,-0.194 ± 0.22
24,L49Q,-0.749 ± 0.19

row,Variant,abundance fitness
1,E2S,-0.443 ± 0.069
2,A29Q,-0.112 ± 0.075
3,L49V,-0.323 ± 0.055
4,C55R,-0.294 ± 0.094
5,R14T,-0.878 ± 0.15
6,S34N,0.107 ± 0.15
7,R13Q,-0.193 ± 0.12
8,Q21T,-0.028 ± 0.073
9,E26D,0.205 ± 0.13
10,L57A,-0.449 ± 0.064
11,G25L,-0.692 ± 0.088
12,R14M,-0.645 ± 0.19
13,F36M,-0.31 ± 0.085
14,K56G,-0.341 ± 0.054
15,V12S,0.089 ± 0.076
16,E66W,-0.562 ± 0.17
17,K16A,-0.08 ± 0.092
18,G18R,-0.84 ± 0.11
19,V12E,0.275 ± 0.063
20,L57R,-0.584 ± 0.079
21,L61R,-1.04 ± 0.18
22,F51H,0.077 ± 0.095
23,A29I,-0.492 ± 0.16
24,T20E,-0.536 ± 0.22

row,Variant,abundance fitness
1,N8C,-0.496 ± 0.16
2,N46F,-0.798 ± 0.24
3,L47H,0.164 ± 0.11
4,E66S,-0.335 ± 0.078
5,V12F,-0.318 ± 0.15
6,E35G,-0.086 ± 0.043
7,A30R,0.042 ± 0.049
8,E69A,-0.436 ± 0.12
9,C55W,-0.14 ± 0.12
10,I60R,-0.346 ± 0.066
11,R43E,0.119 ± 0.097
12,K11S,-0.65 ± 0.14
13,V12Q,0.16 ± 0.23
14,L49M,0.106 ± 0.084
15,E67D,0.002 ± 0.069
16,E2N,-0.518 ± 0.19
17,K63D,0.112 ± 0.077
18,A54Y,-0.333 ± 0.16
19,R14D,-0.725 ± 0.42
20,N46M,-0.492 ± 0.12
21,A59L,-0.122 ± 0.046
22,A7M,-0.551 ± 0.15
23,T39S,-0.065 ± 0.077
24,E67T,-0.371 ± 0.097

row,Variant,abundance fitness
1,K52W,-0.408 ± 0.11
2,N8R,0.188 ± 0.076
3,S50F,-0.724 ± 0.31
4,L47N,0.187 ± 0.065
5,A59K,0.025 ± 0.062
6,S50K,-0.182 ± 0.2
7,V31K,0.131 ± 0.088
8,S34A,-0.079 ± 0.11
9,N46W,-0.851 ± 0.2
10,S37L,-0.682 ± 0.076
11,W64G,-0.568 ± 0.077
12,F10K,-0.721 ± 0.49
13,L3V,-0.468 ± 0.082
14,K11L,-0.973 ± 0.2
15,L3D,-0.794 ± 0.22
16,E45C,-0.763 ± 0.2
17,K52V,0.073 ± 0.077
18,L17Y,-0.858 ± 0.47
19,E4A,0.043 ± 0.084
20,C42V,-0.336 ± 0.054
21,G25S,0.198 ± 0.045
22,A27P,-0.868 ± 0.23
23,I41N,-0.88 ± 0.16
24,S50C,-0.459 ± 0.12

row,Variant,abundance fitness
1,K63H,0.039 ± 0.2
2,F10P,-0.931 ± 0.39
3,E67C,-0.301 ± 0.073
4,E2Q,-0.523 ± 0.16
5,L28Y,-0.711 ± 0.18
6,G18Y,-0.825 ± 0.28
7,F44W,-0.909 ± 0.17
8,K16D,-0.665 ± 0.21
9,W64F,-0.398 ± 0.11
10,A30G,-0.298 ± 0.054
11,R43V,-0.966 ± 0.24
12,F44G,-1.03 ± 0.2
13,T22A,0.357 ± 0.068
14,E69S,-0.4 ± 0.14
15,L17M,-0.453 ± 0.096
16,N53T,0.131 ± 0.037
17,R1T,-0.371 ± 0.19
18,V31R,-0.053 ± 0.052
19,A59G,0.059 ± 0.037
20,L57C,-0.228 ± 0.086
21,I60C,-0.365 ± 0.1
22,T39V,-0.113 ± 0.059
23,E2K,-0.471 ± 0.24
